The values that follow come from patent publication US20250073303A1, “TDP-43 Interference Peptides, Methods, and Uses Thereof” (The University of British Columbia, priority 2022, published 2025).

In one test the target is TDP-43 (Homo sapiens, UniProt Q13148). The test is described as follows: Peptide blocking of TDP-43 phosphorylation and aggregation in HEK293 cells overexpressing pcDNA3.1-FLAG-CK1δ1-317 (western blotting). The format is cell-based. On the set-up: Endogenous TDP-43 was highly phosphorylated by active CK-1δ (lacking its regulatory domain); endogenous in cells; host or cells: HEK293 cells transfected with pcDNA3.1-FLAG-CK1δ1-317. The settings on record: HEK293, CK1δ1-317 overexpression. The procedure: Cell treatment and peptide blocking assay: Ethacrynic acid (EA) (Sigma, Saint Louis, MO) was dissolved in dimethyl sulfoxide (DMSO) at a stock concentration of 100 mM. For SH-SY5Y cells and HEK-293 cells, ethacrynic acid (EA) was added to the culture medium at 1:1000 to reach a final concentration of 100 μM. The treatment was maintained for 24 hours. For mouse cortical neurons, mature cortical neurons of 14 days in vitro (DIV) were used for experiments. Ethacrynic acid (EA) was added to neurons at a concentration of 20 μM for 5 hours. For peptide treatment in cell culture, the peptides were dissolved in double distilled water at a stock concentration of 10 mM and stored at −80° C. […] The primary cultured neurons were treated with peptide A, B, C and D mixture (equal concentration for each) at a final concentration of 5 μM and 10 μM.
TDP-43, sequence (Q13148 whole entry, the tested form may be a part): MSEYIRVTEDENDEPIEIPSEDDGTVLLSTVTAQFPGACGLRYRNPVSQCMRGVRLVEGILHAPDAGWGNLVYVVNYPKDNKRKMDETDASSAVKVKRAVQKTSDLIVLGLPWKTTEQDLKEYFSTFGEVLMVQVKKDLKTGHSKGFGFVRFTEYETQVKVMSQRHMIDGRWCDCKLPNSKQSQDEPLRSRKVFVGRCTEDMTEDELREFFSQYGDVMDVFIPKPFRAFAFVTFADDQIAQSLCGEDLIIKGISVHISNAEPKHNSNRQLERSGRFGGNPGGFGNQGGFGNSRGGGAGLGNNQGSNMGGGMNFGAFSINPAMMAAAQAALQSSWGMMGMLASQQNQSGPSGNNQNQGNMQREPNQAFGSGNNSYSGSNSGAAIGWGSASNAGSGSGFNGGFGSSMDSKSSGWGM
The plasmids were transfected into HEK293 or SH-SY5Y cells using the Lipofectamine 2000 system. Before transfection, cells were plated at 80˜90% confluence and cultured in DMEM containing 10% fetal bovine serum (FBS). […]
Fractionation of cellular soluble and insoluble proteins: Cells or spinal cord tissue were harvested and lysed in 500 μl RIPA buffer [50 mM Tris-HCl pH 7.4; 150 mM NaCl; 1% NP-40; 0.5% Na-deoxycholate; 1 mM EDTA; 50 mM NaF; 1 mM PMSF and protease inhibitor] on ice. […] All the protein samples were further analyzed by Western immunoblotting. […]
Background: A western blot detects proteins with antibodies after separation by electrophoresis.

The next test deals with SH-SY5Y cells. Nature of the test: MTT assay of SH-SY5Y cells with ethacrynic acid challenge. The settings on record: ethacrynic acid treatment compared with the control group. The format is cell-based, human. The procedure: Cell treatment and peptide blocking assay: Ethacrynic acid (EA) (Sigma, Saint Louis, MO) was dissolved in dimethyl sulfoxide (DMSO) at a stock concentration of 100 mM. For SH-SY5Y cells and HEK-293 cells, ethacrynic acid (EA) was added to the culture medium at 1:1000 to reach a final concentration of 100 μM. The treatment was maintained for 24 hours. For mouse cortical neurons, mature cortical neurons of 14 days in vitro (DIV) were used for experiments. Ethacrynic acid (EA) was added to neurons at a concentration of 20 μM for 5 hours. For peptide treatment in cell culture, the peptides were dissolved in double distilled water at a stock concentration of 10 mM and stored at −80° C. The combination of peptides A, B, C and D at equal concentration of 5 μM for each peptide and 20 μM in total was added into cultures of SH-SY5Y cells or HEK-293 cells one hour before ethacrynic acid treatment or pcDNA3.1-FLAG-CK1δ1-317 transfection. […]
MTT assay: The cell viability of SH-SY5Y cells after treatment of Ethacrynic acid (EA) was determined using the MTT assay (Sigma, Saint Louis, MO). Briefly, MTT solution was added to cells for 3-4 hours at 37° C. at the time when the cell viability was determined. […] On the second day, the plate was shaken for 15 minutes in the dark and absorbance at OD=595 nm was read using a plate reader (Envision 2103 Multilabel Reader, Perkin Elmer).
A general note: Tetrazolium dyes change colour on reduction, which living cells bring about.

For “ppTDP: peptide covering the T25 site and S403 site of TDP-43, with a linker sequence between the blocking sequences and a TAT sequence (YGRKKRRQRRRDGTVLLGGGGFGSSMDSKSSG)”, in the test with TDP-43 (20 μM every 6 hours for a total of 48 hours), the “TDP-43 phosphorylation in both the soluble fraction and insoluble fraction” value is recorded as “efficiently blocked”. Further, the “TDP-43 aggregation induced by CK1δ” value in the test with TDP-43 (40 μM every 6 hours for a total of 48 hours, compared with 20 μM) was “did not block TDP-43 aggregation induced by CK1δ more effectively”. Take `C=C(CC)C(=O)c1ccc(OCC(=O)O)c(Cl)c1Cl` [ethacrynic acid]: the “cell death of SH-SY5Y cells” value with SH-SY5Y cells was 69.97%.
